Experimental data as given in US20200024322A1 (Eli Lilly, published 2020).

Key:
human GIP receptor = target: T1, human GIP receptor (human, UniProt P48546 22-466); experiment: [125I]-GIP competition SPA, hGIPR membranes
T1 construct: whole, on cells; also called hGIPR; hGIP-R
T1 sequence (looked up): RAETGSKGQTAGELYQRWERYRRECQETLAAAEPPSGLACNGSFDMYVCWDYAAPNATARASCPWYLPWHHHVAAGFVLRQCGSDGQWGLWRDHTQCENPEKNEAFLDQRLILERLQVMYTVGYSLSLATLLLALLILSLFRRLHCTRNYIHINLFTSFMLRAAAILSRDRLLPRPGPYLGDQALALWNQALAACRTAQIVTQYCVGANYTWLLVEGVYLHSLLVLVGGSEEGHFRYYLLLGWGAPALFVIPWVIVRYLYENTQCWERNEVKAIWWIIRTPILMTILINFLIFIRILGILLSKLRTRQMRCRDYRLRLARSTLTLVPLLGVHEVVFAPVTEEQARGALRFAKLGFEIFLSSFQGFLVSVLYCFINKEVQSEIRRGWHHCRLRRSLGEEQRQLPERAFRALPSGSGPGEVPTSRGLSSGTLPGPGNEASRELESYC
Procedure: The binding buffer contains 25 mM HEPES, pH 7.4, 2.5 mM CaCl₂, 1 mM MgCl₂, 0.1% (w/v) bacitracin, 0.003% (w/v) TWEEN®-20, and Roche Complete™ Protease Inhibitors without EDTA. […] Plates are sealed and mixed on a plate shaker (setting 6) for 1 minute and read with a PerkinElmer Trilux MicroBeta® scintillation counter after 2.5 to 12 hours of incubation/settling time at room temperature.
(§1) Data are analyzed using four-parameter (curve maximum, curve minimum, IC₅₀, Hill slope) nonlinear regression routines (Genedata Screener, version 12.0.4, Genedata AG, Basal, Switzerland). […] Values for Kᵢ are reported as the geometric mean, with error expressed as the standard error of the mean (SEM) and n is equal to the number of independent replicates (determined in assays performed on different days). Geometric Means are calculated as follows: […]

human GLP-1 receptor = target: T2, human GLP-1 receptor (human, UniProt P43220 24-463); experiment: [125I]-GLP-1 competition SPA, hGLP-1R membranes
T2 construct: whole, on cells; also called hGLP-1R; hGLP1R
Procedure: The binding buffer contains 25 mM HEPES, pH 7.4, 2.5 mM CaCl₂, 1 mM MgCl₂, 0.1% (w/v) bacitracin, 0.003% (w/v) TWEEN®-20, and Roche Complete™ Protease Inhibitors without EDTA.
as §1

Binder | Ki (human GIP receptor) | Ki (human GLP-1 receptor)
YXEGTXTSDXSILLDXKAQXEFIXYLIEGGPSSGAPPPS (Aib2; αMeF(2F)6; 4Pal10; Dab16; K17((2-[2-(2-Amino-ethoxy)-ethoxy]-acetyl)2-(γ-Glu)-CO-(CH2)16-CO2H); Aib20; D-Glu24; C-terminal NH2) [Example 234] | 0.0563 nM | 10.9 nM
YXEGTXTSDXSIXLDXKAQXEFIXYLIEGGPSSGAPPPS (Aib2; αMeF6; 4Pal10; αMeL13; Dab16; K17((2-[2-(2-Amino-ethoxy)-ethoxy]-acetyl)2-(γ-Glu)-CO-(CH2)16-CO2H); Aib20; D-Glu24; C-terminal NH2) [Example 235] | 0.0581 nM | 7.65 nM
YXEGTXTSDYSIXLDXKAQXEFIXYLIEGGPSSGAPPPS (Aib2; αMeF(2F)6; Aib13; Orn16; K17((2-[2-(2-Amino-ethoxy)-ethoxy]-acetyl)2-(γ-Glu)-CO-(CH2)16-CO2H); Aib20; D-Glu24; C-terminal NH2) [Example 247] |  | 4.39 nM
YXEGTXTSDXSIXLDXKAQXEFIXYLIEGGPSSGAPPPS (Aib2; αMeF(2F)6; 4Pal10; αMeL13; Dab16; K17((2-[2-(2-Amino-ethoxy)-ethoxy]-acetyl)2-(γ-Glu)-CO-(CH2)16-CO2H); Aib20; D-Glu24; C-terminal NH2) [Example 233] | 0.0445 nM | 5.99 nM
YXEGTXTSDYSIXLDXKAQXEFIXYLIEGGPSSGAPPPS (Aib2; αMeF(2F)6; Nle13; Orn16; K17((2-[2-(2-Amino-ethoxy)-ethoxy]-acetyl)2-(γ-Glu)-CO-(CH2)16-CO2H); Aib20; D-Glu24; C-terminal NH2) [Example 249] | 0.0394 nM | 2.35 nM
YXEGTXTSDASIXLDXKAQXAFIXXLIEGGPSSGAPPPS (Aib2; αMeF(2F)6; αMeL13; Orn16; K17((2-[2-(2-Amino-ethoxy)-ethoxy]-acetyl)2-(γ-Glu)-CO-(CH2)16-CO2H); Aib20; D-Glu24; αMeY25; C-terminal NH2) [Example 246] | 0.0509 nM | 0.812 nM
YXEGTXTSDASIXLDXKAQXEFIXXLIEGGPSSGAPPPS (Aib2; αMeF(2F)6; αMeL13; Orn16; K17((2-[2-(2-Amino-ethoxy)-ethoxy]-acetyl)2-(γ-Glu)-CO-(CH2)16-CO2H); Aib20; D-Glu24; αMeY25; C-terminal NH2) [Example 237] | 0.131 nM | 1.04 nM
YXEGTFTSDYSILLDKKAQAAFIEYLIEGGPSSGAPPPS (Aib2; K17((2-[2-(2-Amino-ethoxy)-ethoxy]-acetyl)2-(γ-Glu)-CO-(CH2)18-CO2H); C-terminal NH2) [Example 253] | 0.138 nM | 2.57 nM
